Results on seven substances are retold here after patent US20100093623A1, “COMPOSITIONS AND METHODS FOR […]-LIKE RECEPTOR ACTIVITY AND USES THEREOF” (Burnham Institute for Medical Research, priority 2008, published 2010).

A word on the Km: it is the substrate concentration at which the rate is half of its maximum. As a reminder, the Ki is the equilibrium dissociation constant of an inhibitor or competing ligand from its target.

“And” between values parts separate entries of the source, which are not always exact repeats. Equal entries are not always repeated. “Also recorded” adds a separate entry of the source. No end group written: not given here.

The target in test [1] is T1, NLRP1 (Homo sapiens, UniProt Q9C000).
T1 sequence (Q9C000 1-1473): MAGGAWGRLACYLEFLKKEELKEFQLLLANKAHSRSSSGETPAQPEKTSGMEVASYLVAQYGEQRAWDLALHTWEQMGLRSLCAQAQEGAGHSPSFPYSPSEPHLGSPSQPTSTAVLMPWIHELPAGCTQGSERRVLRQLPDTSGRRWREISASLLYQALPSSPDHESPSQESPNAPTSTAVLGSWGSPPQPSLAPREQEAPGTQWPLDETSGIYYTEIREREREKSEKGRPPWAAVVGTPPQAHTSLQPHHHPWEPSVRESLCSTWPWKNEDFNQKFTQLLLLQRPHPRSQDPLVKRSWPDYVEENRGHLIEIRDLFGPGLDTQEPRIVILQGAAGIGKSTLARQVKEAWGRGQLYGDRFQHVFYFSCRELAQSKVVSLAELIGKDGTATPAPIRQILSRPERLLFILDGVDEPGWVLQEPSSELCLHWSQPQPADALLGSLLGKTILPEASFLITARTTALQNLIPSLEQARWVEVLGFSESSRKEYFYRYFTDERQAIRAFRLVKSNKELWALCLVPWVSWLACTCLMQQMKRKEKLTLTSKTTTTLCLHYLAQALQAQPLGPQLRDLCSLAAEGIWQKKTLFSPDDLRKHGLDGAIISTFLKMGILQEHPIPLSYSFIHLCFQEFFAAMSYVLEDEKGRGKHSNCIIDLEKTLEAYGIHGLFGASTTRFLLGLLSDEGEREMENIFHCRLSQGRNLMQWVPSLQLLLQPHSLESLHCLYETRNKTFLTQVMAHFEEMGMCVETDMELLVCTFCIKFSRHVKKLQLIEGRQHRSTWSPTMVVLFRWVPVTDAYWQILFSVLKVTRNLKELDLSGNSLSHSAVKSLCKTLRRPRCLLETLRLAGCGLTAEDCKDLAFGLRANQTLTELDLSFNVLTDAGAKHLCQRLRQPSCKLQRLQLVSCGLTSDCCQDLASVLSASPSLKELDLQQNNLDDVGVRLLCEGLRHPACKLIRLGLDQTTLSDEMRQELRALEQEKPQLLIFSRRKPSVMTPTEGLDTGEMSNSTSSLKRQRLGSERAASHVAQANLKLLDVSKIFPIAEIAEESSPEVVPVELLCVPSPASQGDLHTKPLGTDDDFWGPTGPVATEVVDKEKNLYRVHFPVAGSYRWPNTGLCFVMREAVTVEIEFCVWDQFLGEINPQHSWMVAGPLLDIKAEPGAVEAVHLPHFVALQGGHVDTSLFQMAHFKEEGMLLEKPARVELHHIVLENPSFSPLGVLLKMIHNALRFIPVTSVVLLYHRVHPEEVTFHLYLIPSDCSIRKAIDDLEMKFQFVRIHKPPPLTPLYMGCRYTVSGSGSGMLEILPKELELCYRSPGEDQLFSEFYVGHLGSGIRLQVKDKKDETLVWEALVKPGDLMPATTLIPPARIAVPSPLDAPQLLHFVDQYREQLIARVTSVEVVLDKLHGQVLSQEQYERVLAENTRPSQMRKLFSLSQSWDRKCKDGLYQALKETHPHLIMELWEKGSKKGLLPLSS
In words: in vitro reconstituted NLRP1 inflammasome: Caspase-1 activity by hydrolysis of Ac-WEHD-AMC. The test is classed as biochemical. The conditions noted are these: for concentration-dependence of inhibition of NLRP1-induced Caspase-1 activity: various concentrations of protein or peptide, NLRP1 8.5 nM; for IC50: synthetic Bcl-2 peptides, various amounts, sigmoidal fit, read-out: IC50 (concentration to inhibit NLRP1-induced Caspase-1 activity by 50%); for Km: GST-Bcl-2 or GST-Bcl-XL 2 nM, control without inhibitor 2.62±0.35 μM, read-out: Km of Caspase-1 for its substrate Ac-WEHD-AMC in presence of inhibitor; for reduction of affinity (Km) of Caspase-1 for Ac-WEHD-AMC compared to control: in presence of Bcl-2 or Bcl-XL; for Ki: recombinant GST-fusion protein, calculated from Km with/without 2 nM inhibitor, competitive inhibition equation, read-out: inhibitory constant (Ki) for suppression of NLRP1 (NLRP1-induced Caspase-1 activation); for mechanism of NLRP1 inhibition (Lineweaver-Burke analysis): x-axis intercept changed, y-axis intercept unchanged.

The target in test [2] is T2, Caspase-1 (Homo sapiens, UniProt P29466).
T2 construct: fully active, proteolytically processed Caspase-1 comprised of p20 and p10 catalytic subunits purified from bacteria; made in house; host or cells: bacteria
T2 sequence (P29466 120-297 limits assumed): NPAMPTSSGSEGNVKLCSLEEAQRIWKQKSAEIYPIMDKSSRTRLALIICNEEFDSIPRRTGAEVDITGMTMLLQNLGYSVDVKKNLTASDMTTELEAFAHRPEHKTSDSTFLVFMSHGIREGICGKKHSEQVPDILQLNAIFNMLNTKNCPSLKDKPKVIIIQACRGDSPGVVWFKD
T2 sequence (P29466 317-404 limits assumed): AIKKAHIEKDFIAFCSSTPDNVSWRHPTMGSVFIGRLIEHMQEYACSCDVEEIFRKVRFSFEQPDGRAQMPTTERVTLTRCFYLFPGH
In words: activity of purified active p10/p20 Caspase-1 (direct effect). It counts as biochemical. The conditions noted are these: active p10/p20 Caspase-1 5 nM; test protein/peptide at excess; Ac-WEHD-CHO 10 nM. The protocol:
(§1) FIGS. 16A-16E show Bcl-2 Loop peptide inhibits NLRP1. […] Asterisk indicates p<0.05. (B) Purified active p10/p20 Caspase-1 (5 nM) was incubated with or without Bcl-2 Loop peptide 35-83 or Ac-WEHD-CHO (10 nM). […] Asterisks indicate p<0.05.
Caspase activity measurements. […] Proteins were mixed in Caspase-1 buffer (100 mM HEPES, [pH 7.5], 10% Sucrose, 0.1% CHAPS, 1 mM Dithiothreitol) in a final volume of 10 μl in 96-well plates. Various activators were added (ATP, Mg^2+, MDP-LD), adjusting final volume with water. Samples were then incubated for 30 min at 37° C. and Caspase-1 activity was measured using 20 μM fluorometric substrate Ac-WEHD-AMC (Calbiochem). Release of AMC product was monitored continuously by spectrofluorometry in kinetic mode over 1 h at 25-27° C. Rates of catalysis were calculated using the initial slope and Caspase activity was expressed as the change in fluorescence over time derived from the linear phase of reactions. Data were analyzed using the PRISM Statistics software, employing an unpaired t test.
To exclude a direct effect of Bcl-2 and Bcl-XL on Caspase-1, as opposed to NLRP1, the effects of these anti-apoptotic proteins were tested on fully active, proteolytically processed Caspase-1 comprised of p20 and p10 catalytic subunits purified from bacteria (FIG. 11).

The subject of test [3] is NLRP1ΔLRR. In words: Caspase-1 activation by NLRP1ΔLRR mutant. The test is classed as biochemical. As to conditions: peptide 50 nM; Ac-WEHD-CHO 10 nM; NLRP1ΔLRR 8.5 nM. The procedure:
as §1
To characterize the sequence of the Bcl-2 loop responsible for inhibiting NLRP1, a series of overlapping 20′mer peptides corresponding to the 35-83 region were synthesized and tested their effects on NLRP1-mediated Caspase-1 activation. […] The effects of the full-loop peptide (35-83) and the active segment (71-90) were specific, as determined by experiments using a NLRP1 mutant lacking the LRRs. […] Finally, the concentration-dependence of NLRP1 inhibition by the 35-83 and 71-90 loop peptides were compared.

In test [4] the target is T1, NLRP1. In words: NLRP1 oligomerization induced by MDP and ATP, 2D native/SDS gel electrophoresis. The test is classed as biochemical. The conditions noted are these: protein at excess (1/10 molar ratio). The protocol: Electrophoresis. Samples were incubated with protein solubilizing solution (40 mM 6-aminocaproic acid, 20 mM Bis-tris) for 30 min at 4° C., mixed with loading buffer (1M 6-aminocaproic acid, 5% Serva blue G), and applied to acrylamide-bis gradient (4-20%) gels (Schagger et al., (1994) Anal Biochem 217, 220-30). Bands of gels corresponding to the entire lane were excised from top to the bottom, incubated 45 min at 25-27° C. in denaturating buffer (1% β-mercaptoethanol, 10% SDS), then washed twice in equilibrating buffer (50 mM Tris. 1% SDS). Bands from gels were set horizontally on a SDS-acrylamide gel, and proteins were separated by electrophoresis (second dimension), then stained with Sypro Ruby. Molecular weight markers included Thyroglobuline, Apoferritin, β-Amylase and BSA (Sigma).
Oligomerization of NLRP1 induced by MDP and ATP can be monitored using 2D gel-electrophoresis analysis, in which the first dimension is non-denaturing and thus preserves macromolecular complexes during electrophoresis and the second dimension contains SDS for subsequent identification of proteins based on their known molecular mass (Faustin, 2007). For these experiments, NLRP1 monomers were incubated with various proteins (GST, GST-Bcl-XL, His6-Bcl-XLΔLoop) at excess, then MDP and ATP were added to induce oligomerization (FIG. 15). […]

Test [5] has as its target T1, NLRP1. In words: FITC-ATP binding to NLRP1 by fluorescence polarization assay (FPA). The conditions noted are these: protein 1 μM at excess; NLRP1 0.125 μM; FITC-ATP 10 nM; MDP-LD 1 μM. In general terms: Fluorescence polarisation rises when a labelled molecule tumbles more slowly, as on binding a larger partner.
The target in test [6] is T1, NLRP1. In words: NLRP1-mediated proteolytic processing of pro-Caspase-1 (anti-p10 immunoblot). The test is classed as biochemical. The conditions noted are these: molar ratio NLRP1/protein 1/5.

As to “YDNREIVMKYIHYKLSQRGYEW (Synthetic Bcl-2 Loop peptides) [Bcl-2 BH4 domain 9-30, control peptide, reference compound]”, in test [1], the “concentration-dependence of inhibition of NLRP1-induced Caspase-1 activity” value is on record as “negligible activity”.
Take “VGAAPPGAAPAPGIFSSQPGHTPHPAASRDPVARTSPLQTPAAPGAAAG [Bcl-2 Loop 35-83]”: in test [1], the IC50 is 11.4 nM and ~12 nM; the “concentration-dependence of inhibition of NLRP1-induced Caspase-1 activity” value is “reducing Caspaes-1 activity to background levels”. Further, in test [2], the “direct effect on activity of fully active processed Caspase-1” value (“direct effect on activity” below) is given as “did not directly inhibit Caspase-1”. The “Caspase-1 activation by NLRP1ΔLRR” value in test [3] is recorded as “neither the 35-83 nor the 71-90 loop peptides suppressed Caspase-1 activation by NLRP1ΔLRR”.
As to “Bcl-XL: anti-apoptotic protein; recombinant GST-fusion lacking C-terminal transmembrane domain”, in test [4], the “oligomerization of NLRP1 induced by MDP/ATP” value is on record as “suppressed oligomerization of NLRP1”. Besides, in test [1], the Km came to 6.05 ± 0.24 µM; the “reduction of affinity (Km) of Caspase-1 for Ac-WEHD-AMC compared to control” value came to 2 fold; the inhibition constant Ki is ~10 nM and 10 nM; the “concentration-dependence of inhibition of NLRP1-induced Caspase-1 activity” value is recorded as “essentially complete inhibition”. Moreover, the “mechanism of NLRP1 inhibition (Lineweaver-Burke analysis)” value in test [1] is “competitive inhibitors of NLRP1”. For the same substance, the “direct effect on activity” value in test [2] is listed as “neither Bcl-2 nor Bcl-XL suppressed Caspase-1 activity”. Besides, the “reduction of FITC-ATP binding to NLRP1” value in test [5] was roughly 60%. Also, in test [6], the “MDP/ATP-induced proteolytic processing of pro-Caspase-1 to cleaved p10 subunit” value was “inhibited”.
As for “GST: control protein [reference compound]”, the “oligomerization of NLRP1 induced by MDP/ATP” value in test [4] is recorded as “not affected”. Besides, the “reduction of FITC-ATP binding to NLRP1” value in test [5] was “negligible effects”.
For “acetyl-Tryptophanyl-Glutamyl-Histidinyl-Aspartyl-aldehyde (Ac-WEHD-aldehyde; SMILES CC(=O)N[C@@H](Cc1c[nH]c2ccccc12)C(=O)N[C@@H](CCC(=O)O)C(=O)N[C@@H](Cc1c[nH]cn1)C(=O)N[C@H](C=O)CC(=O)O) [Ac-WEHD-CHO, reference compound]”, in test [2], the “direct effect on activity” value is listed as “completely inhibited; also recorded: potently suppressed the activity of this protease”. The “Caspase-1 activation by NLRP1ΔLRR” value in test [3] is reported as “completely neutralized Caspase-1 activity”.
In the case of PLQTPAAPGAAAGPALSPVP [Bcl-2 71-90], in test [1], the IC50 is 9.92 nM and ~10 nM; the “concentration-dependence of inhibition of NLRP1-induced Caspase-1 activity” value is given as “reducing Caspaes-1 activity to background levels”. In addition, the “Caspase-1 activation by NLRP1ΔLRR” value in test [3] is “neither the 35-83 nor the 71-90 loop peptides suppressed Caspase-1 activation by NLRP1ΔLRR”.
As for “Bcl-2: anti-apoptotic protein; recombinant GST-fusion lacking C-terminal transmembrane domain (SEQ ID NO:3/4)”, in test [1], the Km is 5.04 ± 0.5 µM; the “reduction of affinity (Km) of Caspase-1 for Ac-WEHD-AMC compared to control” value was determined as 2 fold; the Ki was ~10 nM and 8.23 nM and 10 nM; the “concentration-dependence of inhibition of NLRP1-induced Caspase-1 activity” value is “essentially complete inhibition”. Further, the “mechanism of NLRP1 inhibition (Lineweaver-Burke analysis)” value in test [1] was “competitive inhibitors of NLRP1”. Further, the “direct effect on activity” value in test [2] was “neither Bcl-2 nor Bcl-XL suppressed Caspase-1 activity”. Moreover, the “reduction of FITC-ATP binding to NLRP1” value in test [5] was roughly 60%. The “MDP/ATP-induced proteolytic processing of pro-Caspase-1 to cleaved p10 subunit” value in test [6] was “inhibited”.
